We go through 14 sequences from the DeepSol protein solubility set.

The series in a line: soluble on expression in E. coli; label from the status in PepcDB or PDB records.
In the case of “MGSDKIHHHHHHMREVFQRLKQAILEKQDTMLLTIGTSSGSTPRSQGARMLVSAEGRIAGTVGGGAVEFQAEQVAKKLVLEKENAQRQFILAPNNIADLGMVCGGNVTIFFHYLSWETPFLKELCESIETHFQNNQQGWLVTELDQNNLGKVSFYSETGELIGSTSWEGELSLLPKGIHCEQKEDIIFLTEAILQVGKVYIFGSGHVARALVPILNYLSFYCVVVDDRPEFLTAQAFPQAEELRVIPLENLAAFIEITADDYGIVITRGHNFDFIVAKQLLETPAKYIGVMGSKHKIASQVRRLKEVGYTMTEIERIFMPIGLDIAAETPEELAISIAGELIQQRYQ”, the “soluble on expression in E. coli” value is on record as “not soluble”.

As to “MSNSHHTSMRGNDMSDNIRVGLIGYGYASKTFHAPLIAGTPGLELAVISSSDETKVKADWPTVTVVSEPKHLFNDPNIDLIVIPTPNDTHFPLAKAALEAGKHVVVDKPFTVTLSQARELDALAKSLGRVLSVFHNRRWDSDFLTLKGLLAEGVLGEVAYFESHFDRFRPQVRDRWREQGGPGSGIWYDLAPHLLDQAITLFGLPVSMTVDLAQLRPGAQSTDYFHAILSYPQRRVILHGTMLAAAESARYIVHGSRGSYVKYGLDPQEERLKNGERLPQEDWGYDMRDGVLTRVEGEERVEETLLTVPGNYPAYYAAIRDALNGDGENPVPASQAIQVMELIELGIESAKHRATLCLA”, the “soluble on expression in E. coli” value is given as “soluble”.

As for “MYHNSSQKRHWTFSSEEQLARLRADANRKFRCKAVANGKVLPNDPVFLEPHEEMTLCKYYEKRLLEFCSVFKPAMPRSVVGTACMYFKRFYLNNSVMEYHPRIIMLTCAFLACKVDEFNVSSPQFVGNLRESPLGQEKALEQILEYELLLIQQLNFHLIVHNPYRPFEGFLIDLKTRYPILENPEILRKTADDFLNRIALTDAYLLYTPSQIALTAILSSASRAGITMESYLSESLMLKENRTCLSQLLDIMKSMRNLVKKYEPPRSEEVAVLKQKLERCHSAELALNVITKKRKGYEDDDYVSKKSKHEEEEWTDDDLVESL”, the “soluble on expression in E. coli” value is recorded as “not soluble”.

As to “MERAHRIDLKLLRYFLAVAEELHFGRAAARLNMSQPPLSIHIKELEQQLGTLLFIRHSRSVALTHAGKVLMEESRRLLASANQALARVEQIGRGEAGRIELGVVGTALWGRMRPAMRHFLKANPNVEVLFREKSPGMQMALLERRELDAGIWRMAIEPAVGFTSIRLHESAFMVAVPEDHDLASRDSVPLAALRNEYFVTLPSVHSDWGFLQRVCQQAGFSPMIIREVVEPQTVLAMISMGIGITLMADGYAQMSWPGVVFRPLEERIPADLYIVYDQQQATPALEKLVAALTV”, the “soluble on expression in E. coli” value is “not soluble”.

With “MAHHHHHHMNSTDTKQSAGYFKEKATIGLSSFSGDEIVKAILKTTSHLLKAPKEKYMQKLVAASYGQYGSGLREGLPINEFIVRELEKRSHTHNWIVVLKTMVSFHRLMCDASDSMVETICYYRHVFRASNIKNLADTADGAGQAYFIAQYMTYLEERCVMQSALGKGRRVEIREFEEYLETLNAKSLQPVFEILLRLFEAVPAVEYREAVVNNFCTLEAYQLLVRDGKQLFQHLAKRVIFILDGFEDFSLPEKRRWFDLYRRYASAFASVKQYFDSMLCSSRVFLEPVPKLKPLPESLLTRLEGDIRASETAKEGLCTLESLGICSREDSRVDSKEEKIRPPRAPEPAVVNQSEAVTALTPAAPTVSLDDLFVPSQEPTKPVQPASCPASWTPAPLAATSFQQGSEQFQWETGVPQNWGSGGHITLQAIATPPVPPPQHAFSGGAPPPAGEGALYPLVQSALKQPPPPVQFKKPADPLKDLYNSCHWQSN”, the “soluble on expression in E. coli” value was “not soluble”.

On to “MGSDKIHHHHHHMRNTDTYSYLVRDGHDLVHDPVPGILGPRPIGWISTCDSSGRPRLQTYSFFGIFNYVPPIVGFASVGGTESVNNAELTGEFAYNLATRPLAGCVNQTIVPALTEMDEFERSGLTKIRSIAIAAPRVAESPVSLECRVTSIQQLNGLDSEALNTWLVLGEVVAVHINRELLCDGFYDTVAAQPILRGGGACDYFEVLQAGKFRMTHPR”, for which the “soluble on expression in E. coli” value is reported as “not soluble”.

Consider “MGSDKIHHHHHHMINFLPYSLDILRAADRDRYISVLFAPKKKRRALAALYAFNAEIARIRENVHNPLIGEIRLRWWYDSIAKSEMEKSESNPILSDLFMAMTLFNLPKTAFLRYCDAQILDLYHNPIATLYDLEFYCGETASIILQLSCQILDPDMAQNFTDAYQHAGIAQGLSGVLRLLSFMQSRYQYYLPADMLKALGIKREELESNRISKEQKCHVIEAMVALSRDHYNRFYEYFNMMPKTLKPAFLPLAIIPASLQKAIQLGAAVFQENAALPLLHRYWFITKAAISSNLPKIL”, for which the “soluble on expression in E. coli” value is “not soluble”.

In the case of “MSLDTPTHLTLMVSGTAKMIYLPATLAQRLGYFRDEGLDVELLSQPAGVDAESELLTGYAQGVVGFYDHTIDLQTKGKEVRAIVVFSHVPGEAEVVSTRLPATVQSLHDLRGRTLGVTGLGSSTSFLTRHLMAQQGLGPGEYTMLPVGAEHSFVSALRSGRIDAGMTTDPTATRLIRNKEARMLLDLRTIESTRAALGGPYPAACLYVQTEWLEAHPELATKLARAFVRTLRYLRSHRAEDIAAHMPPEFRRDRPDVYMQALIAALPTFSDDGRMPADGPATVLRVLSTSNPNARDKHIDLSRTYTNRFVDQAKEGHHHHHH”, the “soluble on expression in E. coli” value is on record as “soluble”.

As to “MSLKPRVAVIGSGSIGLLLYAYLKLANWPALLVTNRPEQADHLNKEGLTFVAKSGEHQPISVTATPLSSFSAEEAEVGFITVKSFAVKALLPQLQRKKWDGLVFFQNGMTHLEILRQIPARAICCGIVEIGAKRESDVRVQHTGDGAIWIGDMVGDSKNFDPMWACLHNAGLKAQKVTNWQDKMERKLIANAAINPLTGLFRVKNGALIENQLFSLLLKELVKEACVTLGREREVDEHLAYTRAICDKTANNLSSMYMDLTHHRRTEIESITGYLIKEAAKKGIEIPNTSFVYHAVMGMDEEGRKVREGHHHHHH”, the “soluble on expression in E. coli” value is recorded as “soluble”.

Regarding “MEMKNVKGTKDYLPEEQVLRNKIKRACEDTFERYGCKPLETPTLNMYELMSYKYGGGDEILKEIYTLQDQGKRNLALRYDLTIPFAKVVAMNPNIRLPFKRYEIGKVFRDGPIKQGRFREFIQCDVDIVGVESVMAEAELMSMAFELFRTLNLEVTIQYNNRKLLNGILESINIPTERTSDVILSLDKIEKIGIDGVRKDVLERGISEEMADTICNTVLSCLKLTIADFKEAFNNPLVADGVNELQQLQQYLIALGINENAIFNPFLARGLTMYTGTVYEIFLKDGSITSSIGSGGRYDNIIGAFRGDNMNYPTVGISFGLDVIYTALSQKETISSTADVFIIPLGTELQCLQIAQQLRSTTSLKVELELAGRKLKRALNYANKENIPYVLIIGEDELSTETVVLRNMKEGSEVKVPLSSLKDNTFNNYCNIPIKL”, the “soluble on expression in E. coli” value was “soluble”.

With “MGSDKIHHHHHHMGLNAYIQGFNSLESIDRAPGYFKYHHHSVADHCFRTAELAQMMGDIEEVHGNKKINWKALYEKSLNHDYTERFIGDIKTPVKYATPQLRKMIGDVEETMTTKFIKEEIPKEFQEIYTRRLSEGKDDTLEGKILSVCDKLDLLYEAYGEIELGNPNPVYMQMFKESLETIKKFDDLVCVQYFIKKILPDLFKGDFAGKDKMQRIAFSILLLGDDE”, the “soluble on expression in E. coli” value is “not soluble”.

For “MDKVPQAVRDYLMEAHQLAAQWSLPNDRGDYINSKSIPIKSVAVIGGGTMGRGIAIAFCLSGFETYLVEVNNKAAEFCKNELEITYKREKAFRRLNDSKVEKLRKNLQITTDFQKLNNCDLIVEAVFEDMKLKKELFTKLDKICKPSCIFGTNTSSLDLNEMSSVLRDPTKVVGIHFFNPANLIRMVEVIYGSKTSSKAVATAFEACRSIKKLPVLVGNCPAFVFNRLLGVYLNQSQKLMYEYGYLPHQIDKIITNFGFLMGPLTVADMNGLDVMEKLKKENGWPASDFEKEVWRQKRYGRKTNKGYYKYDPNTHKKENDIEMEQLIRKFSSAASPNIQILNDQDAVNFLLYPMVNEGLLCIEEGIIHHESLIDIMFILGFGWPVATGGPMRFGWLQGIEKVASTIILWNSLEPNDRTYKVAATLQNVDRKNFAAKL”, the “soluble on expression in E. coli” value is “not soluble”.

For the sequence “MAHHHHHHMEDVRPVTSPLTEDTAYTRCLRGAKEAKERGNTAISDKNFKEASFQYKKALLFLSEYIPGDGGFSEDALIDMLARRRGVATPRDLSPGRKSELMDLYVTVMNNLAVADMRLCRFDKGVEHTTKVLNVPGQEKNRKALWRRAECHVQRGHIEEAEKDVDVLAACAEGNGQQSEEVVEQLRMKIKEKKKQLVREERAICKKMFEHGS”, the “soluble on expression in E. coli” value is “soluble”.

Turning to “ESKSPIIQNVLSYITEHFSEGMSLKTLGNDFHINAVYLGQLFQKEMGEHFTDYLNRYRVNYAKEELLQTKDNLTIIAGKSGYTDMAYFYRQFKKHTGETPNRYRKIHQ”, the “soluble on expression in E. coli” value is “soluble”.
